“Also recorded” adds a separate entry of the source.

Assay [1] addresses T1, recombinant active human HPSE1 (Homo sapiens, UniProt Q9Y251).
T1 construct: recombinant active human HPSE1; purchased Bio-techne 7570-GH-005
T1 sequence (Q9Y251 158-543 limits assumed): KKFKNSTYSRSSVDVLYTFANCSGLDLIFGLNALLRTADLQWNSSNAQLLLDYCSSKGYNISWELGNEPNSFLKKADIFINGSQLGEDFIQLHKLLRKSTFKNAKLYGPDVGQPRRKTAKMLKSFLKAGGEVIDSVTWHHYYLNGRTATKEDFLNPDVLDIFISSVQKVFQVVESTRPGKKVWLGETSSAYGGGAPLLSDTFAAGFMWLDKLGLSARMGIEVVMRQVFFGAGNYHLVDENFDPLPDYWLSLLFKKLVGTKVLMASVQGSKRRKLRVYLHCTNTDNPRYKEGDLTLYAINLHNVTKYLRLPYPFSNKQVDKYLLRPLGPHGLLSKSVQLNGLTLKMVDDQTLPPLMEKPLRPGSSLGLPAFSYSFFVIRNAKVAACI
T1 sequence (Q9Y251 36-109 limits assumed): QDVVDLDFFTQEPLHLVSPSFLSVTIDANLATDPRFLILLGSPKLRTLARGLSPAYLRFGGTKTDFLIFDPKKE
Put plainly: HPSE1 activity assay (inhibition of HPSE1 activity; commercial kit and in-house HS-coated plate assay). Format: biochemical. Conditions: for inhibition of HPSE1 activity, first screening experiment of all 30 HPSE2 peptides: data not shown, recombinant HPSE1. How it is done:
The inhibition of HPSE1 activity by HPSE2 protein and peptides was determined by the commercially available HPSE1 assay kit and an in-house developed HPSE1 activity assay, which was optimized by the use of recombinant active human HPSE1 (Bio-techne, Abingdon, United Kingdom, Cat#7570-GH-005). The in-house developed activity assay was performed as described previously ([Buijsers et al., 2020]). In short, Nunc maxisorp flat bottom 96 plates (Thermo scientific, Breda, Netherlands) were coated with 10 μg/mL heparan sulfate from bovine kidney (HSBK) (Sigma-Aldrich, Zwijndrecht, Netherlands) in optimized HS coating buffer, overnight in a humidified chamber at RT. Subsequently, plates were blocked for minimal 2 h with 1% bacto-gelatin (Difco laboratories, Detroit, Michigan, United States) in PBS at RT whereupon HPSE1 inhibitors were added to the plate with a standard amount of recombinant HPSE1 in HPSE1 buffer. Remaining HSBK was detected with primary mouse […] IgM HS antibody JM403 (Amsbio, Abingdon, United Kingdom, cat. No. #370730-S, RRID: AB_10890960, 1 μg/mL in PBST) for 1 h at RT. Subsequently, plates were incubated with secondary goat anti-mouse IgM HRP antibody (Southern Biotech, Uden, Netherlands, cat. No. #1020–05, RRID: AB_2794201, dilution 1:10,000 in PBST) for 1 h at RT. Finally, 3,3′,5,5′-tetramethylbenzidine (TMB) substrate (Invitrogen, Breda, Netherlands) was added and reaction was stopped by addition of 2 M sulfuric acid, and absorbance was measured at 450 nm.

Another assay deals with HPSE1. Conditions: ref Simeonovic et al., 2013; cited from earlier work. The text has this: Other HPSE1 inhibitors have been tested both in vitro and in vivo for their application in glomerular diseases as well. Administration of HPSE1 substrates, such as soluble HS, heparin, and low-molecular-weight heparins, all comprise the potential to reduce albuminuria. One example of such class of drugs is sulodexide, which is a highly purified mixture that consists for 80% of low-molecular-weight heparin and for 20% of dermatan sulfate ([Poplawska et al., 1997]).

Assay [2] concerns LPS-induced glomerulonephritis in wt C57Bl/6J mice. Put plainly: LPS-induced glomerulonephritis mouse model. Format: in vivo. Conditions: for cortical IL-6 mRNA expression: Figure 5F, IL-6 not detectable in control mice. The method, then:
Experimental LPS-induced glomerulonephritis was induced in eight-to twelve-week-old wt C57Bl/6J mice by an i. p. injection with 80 µg LPS (O111:B4; Sigma-Aldrich Chemie, Zwijndrecht, Netherlands) as described previously ([Garsen et al., 2016a]). The mice were treated with heparanase 2 (HPSE2) protein and an equal mix of HPSE2 peptides (Thermo Fisher Scientific, Breda, Netherlands) 381–410, 391–420, and 401–430, amino acids respectively, via repeated i. v injection with 12 h intervals starting 6 h after LPS injection. Mice were sacrificed 48 h after LPS injection.
(§1) Kidneys were collected and snap frozen in liquid nitrogen and urine was collected after 18 h housing in metabolic cages upon termination. Urinary albumin was measured by radial immunodiffusion (Mancini) as described previously ([Garsen et al., 2016a]). Blood urea nitrogen (BUN) and urinary/plasma creatinine concentrations were determined routinely in our clinical diagnostic facility.
(§2) RNA was isolated from the kidney cortex using RNeasy mini kit (Qiagen) and 1 µg of RNA was reverse transcribed into cDNA using the Transcription First Strand cDNA synthesis kit (Roche, Woerden, Netherlands) according to manufacturer’s instructions. Quantitative PCR was performed with SYBR Green (Roche, Woerden, Netherlands) on a CFX 96 C1000 Thermal Cycler (Bio-rad, Lunteren, Netherlands) to determine expression levels. Data was analysed using glyceraldehyde-3-phosphate dehydrogenase (GAPDH) as housekeeping gene and by making use of the delta-delta CT method.

The next assay has as its system mice induced with LPS. Conditions: LPS co-injected with protein compared to LPS alone, upon 2 h; ref Kiyan et al., 2019; cited from earlier work. How it is done:
Since HPSE1 is also involved in inflammation ([Goodall et al., 2014]; [Lever et al., 2014]), the increased HPSE1 and TNF-α expression might be prevented if HPSE2 is administered concomitant with LPS at induction of experimental glomerulonephritis. This effect has been shown previously by Kiyan et al. in the CLP sepsis mouse model. They reported decreased plasma levels of IL-6 and TNF-α in mice induced with LPS co-injected with full-length HPSE2 protein compared to LPS alone already upon 2 h. Unfortunately, no assessment of cytokine or HPSE1 mRNA expression in the renal cortex or other tissues ...

Assay [3] deals with STZ-induced diabetic nephropathy in wt DBA/2J mice. Put plainly: Streptozotocin (STZ)-induced type 1 diabetic nephropathy mouse model. It is filed as in vivo. The method, then:
Experimental streptozotocin (STZ)-induced type 1 diabetes was induced in six-to eight-week-old wt DBA/2J mice (Charles River, Germany). Mice were first fasted for 4 h whereafter the mice were injected i. p. with 50 mg/kg STZ (Sigma-Aldrich Chemie, Zwijndrecht, Netherlands) in 250 mM sodium citrate buffer (pH 4.5), whereas controls were injected with sodium citrate buffer alone for 5 consecutive days. Blood glucose levels were measured twice a week using the ACCU-CHEK Aviva Blood Glucose Meter (Roche Diagnostics, Almere, Netherlands) to monitor that blood glucose levels would not raise above 25 mmol/L. Mice were implanted under the skin half an insulin pellet (LinShin Canada, Toronto, Canada) when their blood glucose level did raise above 25 mmol/L. The mice were treated with HPSE2 protein via continuous s. c infusion with an osmotic mini pump 8 weeks after the final injection with STZ for a duration of 4 weeks. Mice were sacrificed 12 weeks after induction of diabetes.
as §1, §2

Take “FLWLNTLGMLANQGIDVVIRHSFFDHGYNH [HPSE2 peptide 401–430, HPSE2-derived peptide, AA region 401–430]”: the results for the “inhibition of HPSE1 activity, first screening experiment of all 30 HPSE2 peptides” value in assay [1] and in assay [1] (listed as 401–430) were “showed great promise as inhibitor of HPSE1 activity” and “most effective”, respectively.

Take “GVVTTSAGGTNNLSDSYAAGFLWLNTLGML [HPSE2 peptide 381–410, HPSE2-derived peptide, AA region 381–410]”: the “inhibition of HPSE1 activity, first screening experiment of all 30 HPSE2 peptides” value in assay [1] is “showed great promise as inhibitor of HPSE1 activity; also recorded: most effective”.

In the case of PI-88, the “HPSE1 inhibition in animal models for glomerular diseases, such as DN” value in the assay with HPSE1 is reported as “effective HPSE1 inhibitor”.

B1: HPSE2 protein: His-tagged mouse heparanase-2 protein produced by in vitro translation in HeLa lysate; b60 values from Kiyan et al. concern their protein (protein, UniProt B2RY83 1-592, looked up)
chain: MRVLCAFPEAMASSSSRPPSCLALVALFLALLLHLSLSFHAGNRRPLPVDRATGLKEKTLILLDVSTKNPVRTVNENFLSLQLDPSIIHDGWLDFLSSKRLVTLARGLSPAFLRFGGKRTDFLQFQNLRNPAKSRGGPGPDYYLKNYEDDIVRSDVALDKQKGCKIAQHPDVMLELQREKASQMHLVLLKEQYSNTYSNLILTARSLDKLYNFADCSGLHLIFALNALRRNPNNSWNSSSALSLLKYSASKKYNISWELGNEPNNYRSIHGRAVNGSQLGKDYIQLKSLLQPIRVYSRASLYGPNIGRPRKNVIALLDGFMKVAGSTVDAVTWQHCYIDGRVVKVMDFLKTRLLDTLSDQIRKIQKVVNTYTPGKKIWLEGVVTTSAGGTNNLSDSYAAGFLWLNTLGMLANQGIDVVIRHSFFDHGYNHLVDQNFNPLPDYWLSLLYKRLIGPKVLAVHVAGLQRKPRPGRVIRDKLRIYAHCTNHHNHNYVRGSITLFIINLHRSRKKIKLAGTLRDKLVHQYLLQPYGQEGLKSKSVQLNGQPLVMVDDGTLPELKPRPLRAGRTLVIPPVTMGFYVVKNVNALACRYR
modifications: full-length His tag
notes: His-tagged mouse heparanase-2 protein produced by in vitro translation in HeLa lysate; b60 values from Kiyan et al. concern their protein
B1: the plasma creatinine levels entry in assay [2] (80 µg LPS i.p., repeated i.v. injection at 12 h intervals starting 6 h after LPS, 48 h, n ≥ 4, Figure 5B) is given as “significantly ameliorated”. The “urinary albumin creatinine ratio” value in assay [2] (80 µg LPS i.p., repeated i.v. injection at 12 h intervals starting 6 h after LPS, 48 h, n ≥ 4, Figure 5C) is “significantly ameliorated; also recorded: dose response inhibitory effect”; in assay [3] (STZ 50 mg/kg i.p. 5 days, continuous s.c. infusion by osmotic mini pump from 8 weeks after STZ for 4 weeks, sacrificed at 12 weeks, n ≥ 5, Figure 6C) it was “significantly ameliorated”. The “blood urea nitrogen (BUN)” value in assay [2] (80 µg LPS i.p., repeated i.v. injection at 12 h intervals starting 6 h after LPS, sacrificed 48 h after LPS, mean ± SEM, n ≥ 4, Figure 5A) is recorded as “significantly ameliorated; also recorded: dose response inhibitory effect”. Further, the “cortical HPSE1 mRNA expression” value in assay [2] (LPS model, 2 days, qPCR, GAPDH housekeeping, Figure 5D) is reported as “unaltered”; in assay [3] (STZ model, 12 weeks, qPCR, Figure 6D), “unaltered”. Further, the “cortical TNF-α mRNA expression” value in assay [2] (LPS model, 2 days, qPCR, Figure 5E) is recorded as “unaltered”; in assay [3] (STZ model, 12 weeks, qPCR, Figure 6E), “unaltered”. The “cortical IL-6 mRNA expression” value was “decrease” in assay [2] (LPS model, 2 days, qPCR); “near-significantly decreased” in assay [2] (LPS model, 2 days, qPCR, listed as HPSE2); “did not show a significant difference” in assay [3] (STZ model, 12 weeks, qPCR, with versus without treatment, Figure 6F). The “plasma levels of IL-6” value with mice induced with LPS is given as “decreased”. Further, the “plasma levels of TNF-α” value in the assay with mice induced with LPS is on record as “decreased”. Moreover, the “dose response inhibition of recombinant human HPSE1” value in assay [1] (Figure 4, HS from bovine kidney coated plates, remaining HS detected with JM403, absorbance 450 nm) was “dose-dependent inhibition of HPSE1 activity”.

(Values after article PMC10172501, “Heparanase-2 protein and peptides have a protective effect on experimental glomerulonephritis and diabetic nephropathy” (Frontiers in Pharmacology, 2023).)
